Measured values: patent publication US20220260563A1

What was measured:
Test in all cases: cell-based or functional assay
[1] = biological target: human intravenous immunoglobulin gamma (IVIG), 10% Human IVIG (Gamunex) (human)
[2] = biological target: AAV2 capsid (AAV2-Luciferase vector virions) (AAV2) (UniProt P03135)
[3] = biological target: AAV neutralizing antibodies in AAV8-GFP immunized C57BL6 mice (mouse)
[4] = biological target: human intravenous immunoglobulin gamma (IVIG), 10% Human IVIG (Gamunex) (human); remark: listed apart in the source
[5] = biological target: AAV2 capsid (AAV2-Luciferase vector virions) (AAV2) (UniProt P03135); remark: listed apart in the source

Sequence of UniProt P03135 (P03135 whole entry, the tested form may be a part): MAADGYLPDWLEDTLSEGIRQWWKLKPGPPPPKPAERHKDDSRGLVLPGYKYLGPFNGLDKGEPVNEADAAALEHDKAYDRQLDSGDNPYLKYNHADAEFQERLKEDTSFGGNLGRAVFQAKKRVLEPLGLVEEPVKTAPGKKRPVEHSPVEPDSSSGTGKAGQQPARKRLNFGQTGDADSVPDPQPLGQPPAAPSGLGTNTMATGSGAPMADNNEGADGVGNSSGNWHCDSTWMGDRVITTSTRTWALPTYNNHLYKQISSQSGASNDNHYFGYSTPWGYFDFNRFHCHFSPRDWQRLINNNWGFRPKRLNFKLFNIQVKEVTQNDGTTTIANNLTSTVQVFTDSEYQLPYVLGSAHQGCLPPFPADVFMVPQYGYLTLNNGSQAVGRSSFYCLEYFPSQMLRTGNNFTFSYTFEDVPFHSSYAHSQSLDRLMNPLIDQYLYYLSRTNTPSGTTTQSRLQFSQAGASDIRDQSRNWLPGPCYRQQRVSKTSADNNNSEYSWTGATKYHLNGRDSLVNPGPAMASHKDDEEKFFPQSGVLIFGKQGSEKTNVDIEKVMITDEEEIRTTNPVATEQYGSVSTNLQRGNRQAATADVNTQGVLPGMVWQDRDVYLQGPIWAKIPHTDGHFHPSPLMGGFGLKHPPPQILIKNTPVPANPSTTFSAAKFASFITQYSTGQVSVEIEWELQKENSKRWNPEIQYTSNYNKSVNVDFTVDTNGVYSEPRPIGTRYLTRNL

## Protein M without cleavage of His tag (from UniProt P47523 37-556)
[1]
  molar ratio of protein M to IVIG that protects AAV2 when protein M is pre-incubated with AAV2 (protein M molecules per IgG molecule): > 2
  protection of AAV2 from IVIG neutralization in 10% FBS, protein M to total IgG molar ratio (protein M molecules per IgG molecule): 1
[2]
  molar ratio of protein M to AAV2 particle at which enhancement begins to saturate (protein M molecules per AAV2 particle): 700000
  molar ratio of protein M to AAV2 particle below which enhancement of luciferase signal is abolished (protein M molecules per AAV2 particle): < 40000

## human intravenous immunoglobulin gamma (IVIG), 10% Human IVIG (Gamunex) (antibody)
[2]
  percent of AAV2-Luciferase signal neutralized by 12.5 µg IVIG: 80%
  percent of AAV2 neutralized by 12.5 µg IVIG: 75%
  percent of AAV2 neutralized by 200 µg IVIG: 100%
  reduction in AAV signal by 12.5 µg IVIG without protein M: 68%

B1: Modified M. genitalium protein M MG29 (protein, not shown: small tags and cut ends)
chain: SLSLNDGSYQSEIDLSGGANFREKFRNFANELSEAITNSPKGLDRPVPKTEISGLIKTGDNFITPSFKAGYYDHVAEDGSLLSYYQSTEYFNNRVLMPILQTTNGTLMANNRGYDDVFRQVPRFPGWSNTKATTVSTSNNLTYDKWTYFAAKGSPLYDQYPNHTFEDVKTLAIDAKDISALKTTIDSEKPTYLIIRGLSGNGSQLNELQLPESVKKVSLYGDYTGVNVAKQIFANVVELEFYSTSKANSFGFNPLVLGSKTNVINDLFVSKPFTHIDLTQVTLQNSDNSAIDANKLKQAVGDIYNYRRFERQFQGYFAGGYIDKYLVKNVNTNKDSDDDLVYRSLKELNLHLEEAYREGDNTYYRVNENYYPGASIYENERASRDSEFQNEILKRAEQNGVTFDEN
[3]
  luciferase signal of the saline leg against the protein M formulated leg, AAV8-Luciferase re-dosing in immunized mice: > 98 % less

B2: protein M (SEQ ID NO:2), His-tag removed by thrombin cleavage (protein)
chain: HHHHHHSSGLVPRGSHMTNLVNQSGYALVASGRSGNLGFKLFSTQSPSAEVKLKSLSLNDGSYQSEIDLSGGANFREKFRNFANELSEAITNSPKGLDRPVPKTEISGLIKTGDNFITPSFKAGYYDHVASDGSLLSYYQSTEYFNNRVLMPILQTTNGTLMANNRGYDDVFRQVPSFSGWSNTKATTVSTSNNLTYDKWTYFAAKGASPLYDSYPNHFFEDVKTLAIDAKDISALKTTIDSEKPTYLIIRGLSGNGSQLNELQLPESVKKVSLYGDYTGVNVAKQIFANVVELEFYSTSKANSEGFNPLVLGSKTNVIYDLFASKPFTHIDLTQVTLQNSDNSAIDANKLKQAVGDIYNYRRFERQFQGYFAGGYIDKYLVKNVNTNKDSDDDLVYRSLKELNLHLEEAYREGDNTYYRVNENYYPGASIYENERASRDSEFQNEILKRAEQNGVTFDENIKRITASGKYSVQFQKLENDTDSSLERMTKAVEGLVTVIGEEKFETVDITGVSSDTNEVKSLAKELKTNALGVKLKL
[4]
  AAV2 luciferase signal, percent of no-IVIG control, at 8:1 molar ratio (33 µg protein M, 12.5 µg IVIG) (% of no-IVIG control): 194
  AAV2 luciferase signal, percent of no-IVIG control, at 20:1 molar ratio (75 µg protein M, 12.5 µg IVIG) (% of no-IVIG control): 256
  AAV2 luciferase signal, percent of no-IVIG control, at protein M:IgG molar ratio 0.5:1 (% of no-IVIG control): 40
  AAV2 luciferase signal, percent of no-IVIG control, at protein M:IgG molar ratio 1:1 (% of no-IVIG control): 52
  AAV2 luciferase signal, percent of no-IVIG control, at protein M:IgG molar ratios greater than 2:1 (% of no-IVIG control): 108 to 193
  molar ratio of protein M to IgG sufficient to prevent AAV2 neutralization (protein M molecules per IgG molecule): 2
[5]
  AAV2 luciferase signal relative to PBS control, 33 µg protein M incubated with AAV2 without IVIG (% of PBS control): 216
  AAV2 luciferase signal relative to PBS control, 75 µg protein M incubated with AAV2 without IVIG (% of PBS control): 208
